A word on the Kd: it is a measure of binding affinity in units of concentration. A lower Kd goes with tighter binding.

One test concerns the target His6-NEDD8 (UniProt Q15843 1-76). In words: BLI. (In general: In BLI a coated tip is dipped into the sample, and binding shifts an interference pattern.)
The target in a further test is His6-ubiquitin (UniProt P0CG48 1-76). In words: BLI.

His6-NEDD8, sequence (Q15843 1-76): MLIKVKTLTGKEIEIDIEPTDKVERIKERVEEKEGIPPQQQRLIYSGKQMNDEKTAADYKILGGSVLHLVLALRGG

Turning to RHKQEEQDRLLALQLQKEVDKEQM (domain or fragment, UniProt Q8IYW5 439-462, looked up) [GST-RNF168-MIU2 (439-462)], the Kd with His6-NEDD8 was 14 ± 3 µM; with His6-ubiquitin, 17 ± 3 µM.
